# Assay results: the nanobody polyreactivity screen of Harvey et al. (2022)
# Assay: yeast display, Sf9 membrane polyspecificity reagent, FACS + sequencing; frameworks hold sequencing errors
# Summary of the method: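 Using colony PCR, genes from sorted yeast display clones were amplified, then sequenced on MiSeq at 2 × 250 and filtered by CDR length. The clones had been stained with 10% biotinylated, detergent-solubilized Sf9 membrane reagent for 1 hour at 4 °C and sorted by FACS into low and high (top ~1%) gates on anti-HA and streptavidin fluorescence. Polyreactivity labels come from the gate of origin.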
row,Sequence,polyreactivity (PSR sort gate)
1,QVQLVESGGGLVQAGGSLRLSCAASGSIFYSYAMGWYRQAPGKARELVATISWAGGRTNYADSVKGRFTISRDNAKNTEYLQMNSLKPEDTAVSYCNKPFPYYPDGPNGYDYWGQGTQVTVSS,low polyreactivity
2,QVQLVESGGGLVQAGGSLRLSCAASGSIFYSYAMGWYRQAPGKERELVAAISWDASTYYADSVKGRFTISRDNAKNTVDLQMNSLKPEDTAVYYCNKRWFAPPPYSYVRSYDYWGQGTQVTVSS,low polyreactivity
3,QVQLVESGGGLVQAGGSLRLSCAASGSIFYSYMGWYRQAPGKERECVAAINQRGSSTYYADSVKGRFTISRDNAKNTVYLQMNSLKPEDTAVYDCAAVFFGVYTSRRYYWGQGTQVTVSS,high polyreactivity
4,QVQLVESGGGLVQAGGSLRLSCAASGSIFYTNAMGWYRQAPGKERELVAAIRWSGGRTYYADSVKGRFTISRDNAKNTVYLQMNSLKPEDTAVYYCNVVVRYPSAYDYWGQGTQVTVSS,high polyreactivity
5,QVQLVESGGGLVQAGGSLRLSCAASGSIFYTNAMGWYRQAPGKERELVAAITNGSSTNYADSVKGRFTISRDNAKNTVYLQMNSLNPEDTAVYYCAKYFGNYSIYDYWGQGTQVTVSS,low polyreactivity
6,QVQLVESGGGLVQAGGSLRLSCAASGSIFYTNAMGWYRQAPGKERELVAAITRTGSTNYADSVKGRFTISRDNAKNTVYLQMNSLKPEDTAVYYCNARRYYRYGYWGQGTQVTVSS,high polyreactivity
7,QVQLVESGGGLVQAGGSLRLSCAASGSIFYTNAMGWYRQAPGKERELVAAITWSGGRTYYADSVKGRFTISRDIAKNTVYLQMNSLKPEDTAVYYCNREGWHYGPYGYWGQGTQVTVSS,low polyreactivity
8,QVQLVESGGGLVQAGGSLRLSCAASGSIFYTNAMGWYRQAPGKERELVATITSSTGSTNYADSVKGRFTISRDNAKNTVYLQMNSLKPEDTAVYYCAKRDCYWVYYQMDYWGQGTQVTVSS,low polyreactivity
9,QVQLVESGGGLVQAGGSLRLSCAASGSIFYTNVMGWYRQAPGKERELVARIDSGGSTNYADSVKGRFTISRDNAKNTVFLQMNSLNPEDTAVYYCAADWYIYDYWGQGTQVTVSS,low polyreactivity
10,QVQLVESGGGLVQAGGSLRLSCAASGSIFYTNVMGWYRQAPGKERELVAVISSGGSTYYADSVKGRFTISRDNAKNTVYFQMNSLKPEDTAGYYCNADSVSSPPYYDYWGQGTQVTVSS,high polyreactivity
11,QVQLVESGGGLVQAGGSLRLSCAASGSIFYTYAMGWYRQAPGKERELVAAINWSGGRTYYADSVKGRFTISRDNAKNTVYLQMNSLTPEDTAVYSCAARRGRSWGGFDYWGQGTQVTVSS,low polyreactivity
12,QVQLVESGGGLVQAGGSLRLSCAASGSIFYTYTMGWYRQAPGKERELVAAISRGGRTYYADSVKGRFTISRDNAKNTVYLQMNSLKPEDTAVYYCAAYGYGSWGQGTQVTVSS,high polyreactivity
13,QVQLVESGGGLVQAGGSLRLSCAASGSIFYVNAMGWYRQAPGKERELVAAISYRGGSTYYADSVKGRFTISRDNAKNTVYLQMNSLKPEDTAVYYCAARGYYRPSQTTGRIKYDYWGQGTQVTVSS,high polyreactivity
14,QVQLVESGGGLVQAGGSLRLSCAASGSIFYVNGMGWSRQAPGKERELVARITLSGTSTYYADSVKGRFTISRDNAKNTVYLQMNSLKPEDTAVYYCAAPYFTYGQDDDDYWGQGTQVTVSS,low polyreactivity
15,QVQLVESGGGLVQAGGSLRLSCAASGSIFYVYAMGRYRQAPGKERELVASINKSGGSTYYADSVKGRFTISRDNAKNTVYLQMNSLKPEDTAVYYCAARTGWPRVGFQYPAHVGFDYWGQGTQVTVSS,low polyreactivity
16,QVQLVESGGGLVQAGGSLRLSCAASGSIFYVYAMGWYRQAPGKERELVAAISSSAGSTYYADSVKGRFTISRDNAKNTVYLQMNSLKPEDTAVYYCAAKVRYSLRKYYYWGQGTQVTVSS,high polyreactivity
17,QVQLVESGGGLVQAGGSLRLSCAASGSIFYVYAMGWYRQAPGKERELVAAITARVTSTYYADSVKGRFTISRDNAKNTVYLQMNRLKPEDTADYYCAARTSYKTGYRKYDYWGQGTQVTVSS,low polyreactivity
18,QVQLVESGGGLVQAGGSLRLSCAASGSIFYVYAMGWYRQAPGKERELVAAITNYADSVKGRFTISRDNAKNTVYLQMNSLKPEDTAVYYCAADWWRVEMDYWGQGTEVTVSS,low polyreactivity
19,QVQLVESGGGLVQAGGSLRLSCAASGSIFYVYAMGWYRQAPGKERELVAAITSGGSTNYADSVKGRFTISRDNAKNTVYLQMNSLKPEDTAVYYCAAAWENIWVWQEYIEYDYWGQGTQVTVSS,low polyreactivity
20,QVQLVESGGGLVQAGGSLRLSCAASGSIFYVYAMGWYSQARGKEMELVAAISSSAGSTYYADSVKVRFTISRDNAKTTVYLQINSLIPEDTAVDYCAAKVRYSLRKYYYWGQGTQVTVSS,high polyreactivity
21,QVQLVESGGGLVQAGGSLRLSCAASGSIFYVYTMGWYRQAPGKERELVAAISSSAGSTYYADSVKGRFTISRDNAKNTVYLQMNSLKQEDTAVYYCAAKVRYSLRKYYYWGQGTQVTVSS,high polyreactivity

row,Sequence,polyreactivity (PSR sort gate)
1,QVQLVESGGGLVQAGGSLRLSCAASGSIFYWNAMGWYRQAPGKERELVAAIDYSDGSTYYADSVKGRFTISRDNAKNTVYLQMNSLKPEDTAVYYCAAEWYYDLYDYWGQGTQVTVSS,high polyreactivity
2,QVQLVESGGGLVQAGGSLRLSCAASGSIFYWYAIGWYRQAPGKETELVAAISSGGSTNYADSVKGRFTISRDNAKNTVYLQMNSLKPEDTAVYYCNADIRSFYWEYYTGLDSWGQGTQVTVSS,low polyreactivity
3,QVQLVESGGGLVQAGGSLRLSCAASGSIFYWYALGWYRQAPGKERELVADITTSDGRTYYADSVKGRFTISRDNAKNTVNLQMNSLKPEDTAVYYCAADPFSGYGFQYYRGLYYWGQGTQVSVSS,low polyreactivity
4,QVQLVESGGGLVQAGGSLRLSCAASGSIFYWYAMGWYRQAPGKERELVAAISSGGSTNYADSVKGRFTISRDNAKNTVYLQMNSLKPEDTAVYYCNADIRSFYWEYYTGLDSWGQVTQVTVSS,low polyreactivity
5,QVQLVESGGGLVQAGGSLRLSCAASGSIFYWYAMGWYRQAPGKERELVAAITRSAGTTYYADSVKGRITISRDNAKNTVYLQMNSLKPEDTAVYYCAATYPRPYGSRPRYEYWGQGTQVTVSS,high polyreactivity
6,QVQLVESGGGLVQAGGSLRLSCAASGSIFYYNAMGWSRQAPGKERELVAGIRRSGDSTYYADSVKGRFTISRDNAKNTVYLQMNSLKPEDTAVYYCAAYLYLEYYYWGQGTQVTVSS,low polyreactivity
7,QVQLVESGGGLVQAGGSLRLSCAASGSIFYYNAMGWYRQAPGKERELVAAISSSGGSTYYADSVKGRFTISRDNAKNTVYLQMNSLKPEDTAVYYCAAKLRHWAHHTKYDYWGQGTQVSVSS,low polyreactivity
8,QVQLVESGGGLVQAGGSLRLSCAASGSIFYYNAMGWYRQAPGKERELVAAMSWSGGSTYDADSVKGRFTISRDNAKHTVYLQMNSLKPEDTAVYYCRYYRRDEMDYWGQGTQVTVSS,high polyreactivity
9,QVQLVESGGGLVQAGGSLRLSCAASGSIFYYNAMGWYRQAPGKERELVATITQSGGGRTYYADSVKGRFTISRDNAKNTVYLQMNSLKPEDTAVYYCAAKPDKYKSYRYGYWGQGTQVTVSS,low polyreactivity
10,QVQLVESGGGLVQAGGSLRLSCAASGSIFYYNAMGWYRQAPGQERELVAGINYSGGSTYYADSVKGRFTISRDNAKNTVYLQMNSLIPEDTADYYCAARPRYLNARKYYYWGLGTQVTVSS,high polyreactivity
11,QVQLVESGGGLVQAGGSLRLSCAASGSIFYYNTMGWYRQAPGKEREFVADISVIGGSTYYADSVKGRFTISRDNAKNTVYLQMNSLKPEDTAVYYCAARRYLRPHGLYGYWGQGSQVTVSS,low polyreactivity
12,QVQLVESGGGLVQAGGSLRLSCAASGSIFYYNVMGWYRQAPGKETELVAAISQSGVRTYYADSVKGRFTISRDNAKNTVYLQMNSLKPEDTAVYYCAAKARRLYASSYDYWGQGTQVTVSS,high polyreactivity
13,QVQLVESGGGLVQAGGSLRLSCAASGSIFYYYAAMGWYRQAPGKERELVAAIDSSDGTTYYADSVKGRFTISRDNAKNTVYLQMNSLKPEDTAVYYCAAETVQEFEYWGQGTQVTVSS,high polyreactivity
14,QVQLVESGGGLVQAGGSLRLSCAASGSIFYYYAMGWSRQAPGKERELVAAITWRGGRTYYADSVKGRFTISRDNAKNTVYLQMNSLKPEDTAVYYCAADSRYYQYIYIHGYDYWGQGTQVTVSS,high polyreactivity
15,QVQLVESGGGLVQAGGSLRLSCAASGSIFYYYAMGWYRQAPGKEMELVAAIDSGGSTYYAHSVKGRFTISRDNAKNTVYLQMNSLKPEDTAVYYCAADTYWFVYYGYDYWGQGTQVTVSS,low polyreactivity
16,QVQLVESGGGLVQAGGSLRLSCAASGSIFYYYAMGWYRQAPGKEREFVAAIRESGGSTYYADSVKGRFTISRDNAKNTVYLQMNSLKPEDTAVYYCAVRRPRRNYNYPYDYCGQGTQVTVSS,low polyreactivity
17,QVQLVESGGGLVQAGGSLRLSCAASGSIFYYYAMGWYRQAPGKERELVAAISDDAITYYADSVKGRFTISRDNAKNTVYLQMNSLKPEDTAVYYCAAELYYPVGFDYWGQGTQVTVSS,high polyreactivity
18,QVQLVESGGGLVQAGGSLRLSCAASGSIFYYYAMGWYRQAPGKERELVAAISSGGSTNYADSVKGRFTISRDYAKNTVYLQMNSLKPEDTAVYYCAADYRAQYVVWYTYDYWGQGTQVTVSS,low polyreactivity
19,QVQLVESGGGLVQAGGSLRLSCAASGSIFYYYAMGWYRQAPGKERELVAAITYDAGSTYYADSVKGRFTISRDNAKNTVYLQMNSLKPEDTAVYYCATDGIYHWGVYTPYDYWGQGTQVTVSS,low polyreactivity
20,QVQLVESGGGLVQAGGSLRLSCAASGSIFYYYAMGWYRQAPGKERELVASITSGGRTYYADSVKGRFTISRDNAKNTVYFQMNSLKPEDTAVYYCAAVYGGLTLTRNYYWGQGTQVTVSS,high polyreactivity
